Sequences and labels used below:
B1: unnamed (protein)
chain 1: QVQLVQSGAEVKKPGASVKVSCKASGYTFTSYDINWVRQATGQGLEWMGWMNPNSGNTGYAQKFQGRVTMTRNTSISTAYMELSSLRSEDTAVYYCARDPYYYYYGMDVWGQGTTVTVSS
chain 2: QSVLTQPPSVSAAPGQKVTISCSGSSSNIENNHVSWYQQLPGTAPKLLIYDNNKRPSGIPDRFSGSKSGTSATLGITGLQTGDEADYYCETWDTSLSAGRVFGGGTKLTVL
B2: unnamed (protein)
chain 1: EVQLVESGGGLEQPGGSLRLSCAGSGFTFRDYAMTWVRQAPGKGLEWVSSISGSGGNTYYADSVKGRFTISRDNSKNTLYLQMNSLRAEDTAVYYCAKDRLSITIRPRYYGLDVWGQGTTVTVSS
chain 2: DIVMTQSPLSLPVTPGEPASISCRSSQSLLYSIGYNYLDWYLQKSGQSPQLLIYLGSNRASGVPDRFSGSGSGTDFTLKISRVEAEDVGFYYCMQALQTPYTFGQGTKLEIK
B3: unnamed (protein)
chain 1: QVQLVQSGSELKKPGASVKVSCKASGYTFTDNNMDWVRQAPGQGLEWMGDINTRSGGSIYNEEFQDRVIMTVDKSTDTAYMELSSLRSEDTATYHCARRKSYGYYLDEWGEGTLVTVSS
chain 2: DIQMTQSPSSLSASVGDRVTITCKASRNIERQLAWYQQKPGQAPELLIYQASRKESGVPDRFSGSRYGTDFTLTISSLQPEDIATYYCQQYSDPPLTFGGGTKVEIK
B4: unnamed (protein)
chain 1: EVQLVESGGGLVQPGGSLRLSCAVSGFSSTNYHVHWVRQAPGKGLEWMGVIWGDGDTSYNSVLKSRFTISRDTSKNTVYLQMNSLRAEDTAVYYCARQLTHYYVLAAWGQGTLVTVSS
chain 2: DIQMTQSPSSLSASVGDRVTITCRASEDLYYNLAWYQRKPGKAPKLLIYDTYRLADGVPSRFSGSGSGTDYTLTISSLQPEDFASYYCQQYYKFPFTFGQGTKVEIK
B5: unnamed (protein)
chain 1: QVQLVQSGAEVKKPGASVKVSCKASGYIFSNYWIQWVRQAPGQGLEWMGEILPGSGSTEYTENFKDRVTMTRDTSTSTVYMELSSLRSEDTAVYYCARYFFGSSPNWYFDVWGQGTLVTVSS
chain 2: DIQMTQSPSSLSASVGDRVTITCGASENIYGALNWYQQKPGKAPKLLIYGATNLADGVPSRFSGSGSGTDFTLTISSLQPEDFATYYCQNVLNTPLTFGQGTKVEIK
B6: unnamed (protein)
chain 1: EVQLVESGGGLVQPGGSLRLSCAASGFDFSRYWMSWVRQAPGKGLEWIGEINPDSSTINYAPSLKDKFIISRDNAKNSLYLQMNSLRAEDTAVYYCARPDGNYWYFDVWGQGTLVTVSS
chain 2: DIQMTQSPSSLSASVGDRVTITCKASQDVGIAVAWYQQKPGKVPKLLIYWASTRHTGVPDRFSGSGSGTDFTLTISSLQPEDVATYYCQQYSSYPYTFGQGTKVEIK
B7: unnamed (protein)
chain 1: EVQLLESGGGLVQPGGSLRLSCAASGFTFSSYAMSWVRQAPGKGLEWVSTISSGGSYTSYPDSVKGRFTISRDNSKNTLYLQMNSLRAEDTAVYYCAKQDYAMNYWGQGTLVTVSS
chain 2: DIQMTQSPSSLSASVGDRVTITCKASQDVSTAVAWYQQKPGKAPKLLIYSASYRYTGVPSRFSGSGSGTDFTLTISSLQPEDFATYYCQQHYSTPWTFGGGTKVEIK
B8: unnamed (protein)
chain 1: QVQLVQSGAEVKKPGSSVKVSCKASGGTFSYYWIEWVRQAPGQGLEWMGEILPGSGTTNPNEKFKGRVTITADESTSTAYMELSSLRSEDTAVYYCARADYYGSDYVKFDYWGQGTLVTVSS
chain 2: DIQMTQSPSSLSASVGDRVTITCKASQHVITHVTWYQQKPGKAPKLLIYGTSYSYSGVPSRFSGSGSGTDFTLTISSLQPEDFATYYCQQFYEYPLTFGGGTKVEIK
B9: unnamed (protein)
chain 1: EVQLVESGGGLVQPGGSLRLSCAASGYSFTGHWMNWVRQAPGKGLEWVGMIHPSDSETRYNQKFKDRFTISVDKSKNTLYLQMNSLRAEDTAVYYCARGIYFYGTTYFDYWGQGTLVTVSS
chain 2: DIQMTQSPSSLSASVGDRVTITCRASKTISKYLAWYQQKPGKAPKLLIYSGSTLQSGVPSRFSGSGSGTDFTLTISSLQPEDFATYYCQQHNEYPLTFGQGTKVEIK
B10: unnamed (protein)
chain 1: QVQLVQSGAEVKKPGASVKVSCKASGYTFTDYYMHWVRQAPGQGLEWMGRVNPNRRGTTYNQKFEGRVTMTTDTSTSTAYMELRSLRSDDTAVYYCARANWLDYWGQGTTVTVSS
chain 2: DIQMTQSPSSLSASVGDRVTITCSVSSSVSSIYLHWYQQKPGKAPKLLIYSTSNLASGVPSRFSGSGSGTDFTLTISSLQPEDFATYYCQVYSGYPLTFGGGTKVEIK
B11: unnamed (protein)
chain 1: EVQLLESGGGLVQPGGSLRLSCAASGFTFSSYAMSWVRQAPGKGLEWVSGITGSGGSTYYADSVKGRFTISRDNSKNTLYLQMNSLRAEDTAVYYCAKDPGTTVIMSWFDPWGQGTLVTVSS
chain 2: EIVLTQSPGTLSLSPGERATLSCRASQSVRGRYLAWYQQKPGQAPRLLIYGASSRATGIPDRFSGSGSGTDFTLTISRLEPEDFAVFYCQQYGSSPRTFGQGTKVEIK
B12: unnamed (protein)
chain 1: EVQLVESGGGLVQPGGSLRLSCAASGFTFSRYWMSWVRQAPGKGLEWVANIKQDGSEKYYVDSVKGRFTISRDNAKNSLYLQMNSLRAEDTAVYYCAREGGWFGELAFDYWGQGTLVTVSS
chain 2: B11 chain 2 with S28R, R30S, G31S, R32S, G51D, F87Y, S95L, R97W
B13: unnamed (protein)
chain 1: EVQLLESGGGLVQPGGSLRLSCAVSGFTFNSFAMSWVRQAPGKGLEWVSAISGSGGGTYYADSVKGRFTISRDNSKNTLYLQMNSLRAEDTAVYFCAKDKILWFGEPVFDYWGQGTLVTVSS
chain 2: not shown
B14: unnamed (protein)
chain 1: EVQLLQSGPELEKPGASVMISCKASGSSFTGYNMNWVRQNIGKSLEWIGAIDPYYGGTSYNQKFKGRATLTVDKSSSTAYMHLKSLTSEDSAVYYCVSGMEYWGQGTSVTVSS
chain 2: EIVMTQSPATLSVSPGERATLSCRSSQSLVHRNGNTYLHWYLQKPGQSPKLLIHKVSNRFSGVPDRFSGSGSGTDFTLKISRVEAEDLGVYFCSQSTHVPPLTFGAGTKLELK
B15: unnamed (protein)
chain 1: QVQLQESGPGLVKPSQTLSLTCTVSGYSISSDFAWNWIRQPPGKGLEWMGYISYSGNTRYQPSLKSRITISRDTSKNQFFLKLNSVTAADTATYYCVTAGRGFPYWGQGTLVTVSS
chain 2: DIQMTQSPSSMSVSVGDRVTITCHSSQDINSNIGWLQQKPGKSFKGLIYHGTNLDDGVPSRFSGSGSGTDYTLTISSLQPEDFATYYCVQYAQFPWTFGGGTKLEIK
B16: unnamed (protein)
chain 1: EVQLVQSGAEVKKPGATVKISCKVSGYTFTDYYIHWVQQAPGKGLEWMGRVNPDHGDSYYNQKFKDKATITADKSTDTAYMELSSLRSEDTAVYFCARNYLFDHWGQGTLVTVSS
chain 2: DIQMTQSPSSVSASVGDRVTITCKASQDVGTAVAWYQQKPGKAPKLLIYWASIRHTGVPSRFSGSGSGTDFTLTISSLQPEDFATYYCHQFATYTFGGGTKVEIK
B17: unnamed (protein)
chain 1: QVQLQQSGAELVRPGTSVKVSCKASGYAFTNYLIEWVKQRPGQGLEWIGVINPGSGGTNYNEKFKGKATLTADKSSSTAYMQLSSLTSDDSAVYFCARDGPWFAYWGQGTLVTVSA
chain 2: NIVMTQSPKSMSMSVGERVTLTCKASENVVTYVSWYQQKPEQSPKLLIYGASNRYTGVPDRFTGSGSATDFTLTISSVQAEDLADYHCGQGYSYPYTFGGGTKLEIK
B18: unnamed (protein)
chain 1: QVQLVESGGGVVQPGRSLRLSCAASGFSFSNYGMHWVRQAPGKGLEWVALIWYDGSNEDYTDSVKGRFTISRDNSKNTLYLQMNSLRAEDTAVYYCARWGMVRGVIDVFDIWGQGTVVTVSS
chain 2: DIQMTQSPSSVSASVGDRVTITCRASQGISSWLAWYQHKPGKAPKLLIYAASSLQSGVPSRFSGSGSGTDFTLTISSLQPEDFATYYCQQANSFPWTFGQGTKVEIK
B19: unnamed (protein)
chain 1: EVQLVESGGGLVQPGGSLRLSCAASGFTFSSYNMNWVRQAPGKGLEWVSYISSSSSTIYYADSVKGRFTISRDNAKNSLSLQMNSLRDEDTAVYYCARAYYYGMDVWGQGTTVTVSS
chain 2: B18 chain 2 with S31G, H38Q, L46F, S53T, W96P, Q100G
B20: unnamed (protein)
chain 1: QVQLKESGPGLVAPSQSLSITCTVSGFSLTDYGVRWIRQPPGKGLEWLGVIWGGGSTYYNSALKSRLSISKDNSKSQVFLKMNSLQTDDTAMYYCAKEKRRGYYYAMDYWGQGTSVTVSS
chain 2: ENVLTQSPAIMSASPGEKVTMTCRASSSVSSSYLHWYQQKSGASPKLWIYSTSNLASGVPARFSGSGSGTSYSLTISSVEAEDAATYYCQQYSGYPLTFGGGTKLEIK

Positions count from the first letter of the chain named.

This series is described as follows: patients with anti-drug antibodies; higher = more immunogenic.
For the protein B1, the “patients with anti-drug antibodies” value worked out at 0%.
As for B2, the figure is 4%; as for B3, 3.5%; as for B4, 8.9%.
For the protein B5, the “patients with anti-drug antibodies” value was found to be 2%.
With B6 the figure was 18.5%; with B7, 9.4%.
In the case of B8, the “patients with anti-drug antibodies” value turned out to be 9%.
As for B9, the figure is 6.3%.
With B10 the figure was 0%; with B11, 1%.
Consider B12, for which the “patients with anti-drug antibodies” value worked out at 3.3%.
For the protein B13, the “patients with anti-drug antibodies” value is 0%.
As for B14, the figure is 17%; as for B15, 5%; as for B16, 58.6%.
With B17 the figure was 80%; with B18, 0%.
For the protein B19, the “patients with anti-drug antibodies” value came to 1%.
B20: the “patients with anti-drug antibodies” value was 33.3%.

Source of the values: the FLAb antibody collection.
